For 72 sequences, protein stability index results are on record in the supplement of paper PMC10567573.

This series is described as follows: protein stability index of a GFP-peptide fusion (GPS, HEK-293T) (PSI 1-6); higher = more stable.
The mark [1] stands for this setting: treatment: DMSO, c terminus: a fixed tail appended.
The mark [2] stands for this setting: treatment: MLN4924 1 uM, 8 h, c terminus: a fixed tail appended.

± gives the standard deviation.
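Further: 24-mer peptide tiles fused after GFP, lentivirally expressed, FACS-sorted into six equal bins by GFP/DsRed ratio, decoded by Illumina sequencing, PSI is the read-weighted mean bin number.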

ISVQNYKQVCKIAALHGLEETKKL [KLHL14]: the protein stability index runs as follows: under setting [1], 2.29 ± 0.24; under setting [2], 2.31 ± 0.3.

Regarding SDEDDEEERRRRVFDVPIRRRRCS [FBXO3], the protein stability index by setting is: under setting [1], 5.41 ± 0.32; under setting [2], 5.42 ± 0.27.

With LHLASDFFLKHPDKDVRLLVACCL [PDS5B], the protein stability index reads like this: under setting [1], 2.23 ± 0.79; under setting [2], 2.39 ± 0.43.

With QEKKILELEKLAEKNIILEEKIQV [MTUS2], the protein stability index is 4.3 ± 0.28 under setting [1] and 4.29 ± 0.17 under setting [2].

The sequence NMTQDEFKSLFGSIGDIESCKLVR [ELAVL3] gave a protein stability index under setting [1] of 3.28 ± 0.15 and a protein stability index under setting [2] of 3.33 ± 0.46.

For DREVDAATSATSHTRSLNSIIHQM [FBF1], the protein stability index worked out at 4.09 ± 0.15 under setting [1] and 4.21 ± 0.28 under setting [2].

In the case of KMGGKDFSFRYQQELEEEIKELYE [ATL3], the protein stability index was found to be 2.52 ± 0.51 under setting [1] and 2.87 ± 0.32 under setting [2].

As for QLIGSSNLFVMQVEMDIYTALKKW [GMCL1], the protein stability index is 2.57 ± 0.61 under setting [1] and 2.28 ± 0.81 under setting [2].

As for VAAACACGFTVAQIITSLVFHLPF [OR10K2], the protein stability index came to 3.43 ± 0.54 under setting [1] and 3.42 ± 0.68 under setting [2].

As for LCQKQVKAQLPRRESERRNHSLAR [FBXO28], the protein stability index amounted to 3.81 ± 0.14 under setting [1] and 4.23 ± 0.17 under setting [2].

On to DSTLSYTETEATNSLITAPGEFSD [SMAD6], for which the protein stability index by setting is: under setting [1], 5.34 ± 0.2; under setting [2], 5.39 ± 0.17.

Regarding ENQSPSSSNYFSPRESTDFSSSSQ [ZBTB22], the protein stability index worked out at 5.12 ± 0.31 under setting [1] and 4.96 ± 0.34 under setting [2].

On to GMFTFLSSVTAAVSGLLVGYELGI [SLC2A12], for which the protein stability index came out at 2.891 ± 0.011 under setting [1] and 2.75 ± 0.86 under setting [2].

With SKLASNGTPMGTFAPLWEVFRVSS [FCHO1], the protein stability index by setting is: under setting [1], 2 ± 0.3; under setting [2], 2.26 ± 0.22.

As for LGNVAEVKELRPQLMTSQFISVFS [ZER1], the protein stability index runs as follows: under setting [1], 2.55 ± 0.3; under setting [2], 2.34 ± 0.28.

DTRLGQVSALPLPPAMKRYLLYQ [SPSB2]: the protein stability index runs as follows: (treatment: DMSO, c terminus: native) 2.4 ± 0.42; (treatment: MLN4924 1 uM, 8 h, c terminus: native) 2.69 ± 0.3.

With KLNLPDYHKIIKNPMDMGTIKKRL [BRD3], the protein stability index is, setting by setting: under setting [1], 2.41 ± 0.17; under setting [2], 2.48 ± 0.42.

THGALCLELLVNNGADVNIQSKDG [ANKRD44]: the protein stability index is, setting by setting: under setting [1], 3.99 ± 0.22; under setting [2], 4.01 ± 0.37.

As to ERNFWDPSPQLDTQQEIKLCQKSN [WDR41], the protein stability index is, setting by setting: under setting [1], 3.92 ± 0.34; under setting [2], 3.94 ± 0.37.

As to LPGPTRPVLGRRAVGGRLRLVPGG [HAGHL], the protein stability index amounted to 3.53 ± 0.41 under setting [1] and 3.67 ± 0.23 under setting [2].

In turn, CWDMYRHDIDCQWVDITDVPPGDY [LOXL2] came in with a protein stability index under setting [1] of 2.7 ± 0.36 and a protein stability index under setting [2] of 3.11 ± 0.3.

QVQSMVVGEVLKDIETACKLLNIT [SPDEF]: the protein stability index came out at 2.42 ± 0.36 under setting [1] and 2.39 ± 0.35 under setting [2].

Turning to VLDILTEQREWVLKSSILIAMAVY [INTS3], the protein stability index by setting is: under setting [1], 2.57 ± 0.33; under setting [2], 2.48 ± 0.61.

As to AAGGVPGGGSNNGKTPVCHQCHKV [PDLIM7], the protein stability index came to 3.32 ± 0.62 under setting [1] and 3.85 ± 0.56 under setting [2].

ALKHPWISHRSTVASCMHRQETVD [CAMK2A] returned a protein stability index under setting [1] of 3.18 ± 0.13 and a protein stability index under setting [2] of 3.35 ± 0.16.

Consider CQECGKTFRVSSDLIKHQRIHTEE [ZNF75A], for which the protein stability index under setting [1] was found to be 5.26 ± 0.4 and the protein stability index under setting [2] was found to be 5.41 ± 0.31.

For LPCARVQICRAQGLETLFSKAQEL [ZSWIM9], the protein stability index reads like this: under setting [1], 2.87 ± 0.51; under setting [2], 2.33 ± 0.79.

As to PSHGSLSHSKAPSGSQMSHNAVTS [NCF4], the protein stability index by setting is: under setting [1], 4.55 ± 0.1; under setting [2], 4.83 ± 0.37.

On to LTVVCAAGAEPLPRNGDQWHEIRQ [WEE1], for which the protein stability index reads like this: under setting [1], 2.55 ± 0.34; under setting [2], 2.49 ± 0.4.

As to TQATETTTTRHKRTANPSKTIDLG [CLINT1], the protein stability index stood at 4.88 ± 0.09 under setting [1] and 5.05 ± 0.13 under setting [2].

Regarding NGCRSGEIFAIDLRCGNQGKGWKA [DCAF4], the protein stability index amounted to 2.31 ± 0.35 under setting [1] and 2.2 ± 0.29 under setting [2].

As for LDGLIQQCGETMKETVNVKTVCGY [GMCL1], the protein stability index runs as follows: under setting [1], 3.1 ± 0.33; under setting [2], 3.37 ± 0.36.

Take EILRYMKEFTLLLSAANVCLDPII [P2RY14]: the protein stability index runs as follows: under setting [1], 2.44 ± 0.47; under setting [2], 2.26 ± 0.31.

Consider ILPKQSRKSMLDAGPDSWGSDAEQ [LCOR], for which the protein stability index reads like this: under setting [1], 4.51 ± 0.15; under setting [2], 4.55 ± 0.21.

Turning to SAQAPPDSISLHQPCNPPAPAGDK [DMRTC1], the protein stability index under setting [1] stood at 5.38 ± 0.13 and the protein stability index under setting [2] was 5.28 ± 0.28.

GVGKSAMTMQFISHRFPEDHDPTI [RIT1]: the protein stability index was determined as 3.4 ± 0.24 under setting [1] and 3.46 ± 0.37 under setting [2].

On to AAAYGHALEQYEGESWRESARYLE [P3H4], for which the protein stability index reads like this: under setting [1], 4.19 ± 0.23; under setting [2], 4.21 ± 0.21.

In the case of ARRELQAEREALQARLRDVSRREG [ZBED3], the protein stability index under setting [1] came out at 4.79 ± 0.15 and the protein stability index under setting [2] was 4.8 ± 0.18.

Consider APANVAKIQLRLAGQKRKHSEGRV [LOXL2], for which the protein stability index by setting is: under setting [1], 3.88 ± 0.13; under setting [2], 4.53 ± 0.32.

For KGAAAAAAASGAAGGGGGGAGAGA [INTS3], the protein stability index came to 5.26 ± 0.42 under setting [1] and 5.3 ± 0.27 under setting [2].

IGPLETMHLNAEGMLSYCDRYSEG [CRYL1] returned a protein stability index under setting [1] of 3.47 ± 0.48 and a protein stability index under setting [2] of 3.27 ± 0.28.

TVEDLFYNIATRRKALKNPSEEYG [MLH1]: the protein stability index by setting is: under setting [1], 3.02 ± 0.8; under setting [2], 3.06 ± 0.1.

As to KNGLPSPERSYVFNGDFVDRGKDS [PPEF2], the protein stability index is, setting by setting: under setting [1], 4.7 ± 0.079; under setting [2], 4.76 ± 0.18.

For KKLRFHPKQLYFSARQGELQKVLL [EHMT1], the protein stability index is 3.28 ± 0.71 under setting [1] and 2.63 ± 0.45 under setting [2].

As for FTFLQPLPLSPGVLSSTPDHSFSL [ATF4], the protein stability index is, setting by setting: under setting [1], 2.2 ± 0.33; under setting [2], 2.19 ± 0.33.

Turning to QGPISTKELADFIRERATIEETYS [FCHO1], the protein stability index by setting is: under setting [1], 3.13 ± 0.21; under setting [2], 3.26 ± 0.32.

Take MASSSTVPLGFHYETKYVVLSYLG [BCL2L13]: the protein stability index reads like this: under setting [1], 2.64 ± 0.48; under setting [2], 2.33 ± 0.45.

Regarding YLSLLRMYLSPPSIHCLGPIKLEL [VPS39], the protein stability index came out at 3.26 ± 0.43 under setting [1] and 2.94 ± 0.16 under setting [2].

As to VHRGDGANPFQAYLDVDLTLTREQ [RTN2], the protein stability index was 3.88 ± 0.088 under setting [1] and 3.82 ± 0.25 under setting [2].

As to GGTLAEFIQKRCNSLLEEETILHF [NEK8], the protein stability index under setting [1] was 1.97 ± 0.24 and the protein stability index under setting [2] came to 1.99 ± 0.43.

On to APVANSYRGTLKRQPAFDTFDGSL [ETS2], for which the protein stability index under setting [1] was 3.4 ± 0.097 and the protein stability index under setting [2] worked out at 3.42 ± 0.13.

For the sequence ELVLPFQELQIDDNEYAYLKAIIF [HNF4A], the protein stability index is, setting by setting: under setting [1], 2.16 ± 0.14; under setting [2], 2.37 ± 0.35.

With TETREEDVTDEHGEREPFAETDEH [FAM9B], the protein stability index came out at 5.69 ± 0.061 under setting [1] and 5.63 ± 0.26 under setting [2].

With SQENSINPIQKEEDEGVDLSEGSS [SPANXN3], the protein stability index by setting is: under setting [1], 5.5 ± 0.2; under setting [2], 5.64 ± 0.084.

As for SYYIIQHKPKNSEELYKEIDGVAT [PTPRD], the protein stability index under setting [1] amounted to 2.98 ± 0.4 and the protein stability index under setting [2] was 3.18 ± 0.66.

VKNVVSGGFPIIRDQIFRYVHDPE [FBXO3]: the protein stability index is, setting by setting: under setting [1], 2.53 ± 0.31; under setting [2], 2.63 ± 0.38.

For the sequence EDDDWGEDTTEEAQRRRMDEISDH [EIF5], the protein stability index reads like this: under setting [1], 5.59 ± 0.24; under setting [2], 5.34 ± 0.18.

In the case of SHCSQLTTLSFYGNSISISALQSL [PRAME], the protein stability index turned out to be 2.87 ± 0.72 under setting [1] and 2.78 ± 0.58 under setting [2].

The sequence PGASTEEVKRAFFSKSKELHPDRD [DNAJC4] had a protein stability index under setting [1] of 5.12 ± 0.28 and a protein stability index under setting [2] of 5.18 ± 0.079.

On to GLLQYGSTVKNEFSLKTFKRKSEV [MATN2], for which the protein stability index runs as follows: under setting [1], 3.02 ± 0.25; under setting [2], 3.07 ± 0.35.

Turning to ESFGQNYPEEADGTLDCISMALTC [RBBP5], the protein stability index runs as follows: under setting [1], 3.72 ± 0.26; under setting [2], 3.53 ± 0.18.

With AGYYELAQVLLAMHANVEDRGIKG [ANKRD17], the protein stability index is, setting by setting: under setting [1], 2.02 ± 0.21; under setting [2], 1.96 ± 0.34.

In the case of LAHAFQPGPGIGGDAHFDEDERWT [MMP1], the protein stability index is, setting by setting: under setting [1], 4.73 ± 0.14; under setting [2], 4.53 ± 0.21.

As for TRLQDCYVDSPALTNIWMARTCAK [C22orf31], the protein stability index was 2.47 ± 0.2 under setting [1] and 2.69 ± 0.11 under setting [2].

Turning to RTSPSCAFRSDDTKGHPRAVSQPF [CDC14A], the protein stability index is 3.57 ± 0.22 under setting [1] and 3.62 ± 0.37 under setting [2].

For the sequence MFTSELSEKGKPYVDIQGLTASTM [KLHL12], the protein stability index by setting is: under setting [1], 2.54 ± 0.31; under setting [2], 2.88 ± 0.46.

On to GLSAPARCLVRCLLRREPAERLTA [TRIB3], for which the protein stability index is 2.33 ± 0.12 under setting [1] and 2.16 ± 0.32 under setting [2].

Regarding VSGDTSKLMKILQPQDVDLALDSG [RIPK4], the protein stability index is, setting by setting: under setting [1], 4.57 ± 0.16; under setting [2], 4.68 ± 0.32.

Turning to GSQRARVVNTDHGSPEQLQIPVTD [SDE2], the protein stability index under setting [1] came to 5.06 ± 0.22 and the protein stability index under setting [2] stood at 4.98 ± 0.34.

Regarding RYEEANNNQYSEGVQREAQRIALR [KMT2E], the protein stability index is, setting by setting: under setting [1], 4.3 ± 0.25; under setting [2], 4.59 ± 0.2.

Take CAKYTYPVCSALLDPVLQAPGTGP [FANCE]: the protein stability index is, setting by setting: under setting [1], 2.65 ± 0.14; under setting [2], 2.26 ± 0.17.

Turning to LSYVMSGYRCFVCPVEYNNDTNSF [CDS2], the protein stability index was 2.78 ± 0.42 under setting [1] and 2.82 ± 0.45 under setting [2].
